Measured values reported in patent US8889408B2, “Factor taking part in transcription control” (Sony Corporation, priority 2002, dated 2014).

Assays:
MM-1-19-P cells = experiment: ATRA-induced differentiation of MM-1-19-P rhabdomyosarcoma cells; type: cell-based, human
Text: It is known that ATRA (all-trans retinoic acid) is an important inducer for tumor cell differentiation (20-22). The human rhabdomyosarcoma cell line MM-1-19-P is constituted mainly of small polygonal cells, which when provided with retinoic acid, ultimately differentiate into myotubular cytomegalic cells. In order to clarify the physiological role of HDART in the reaction ascribed to nuclear hormone receptors, the influence of the expression with HDART on the differentiation of MM-1-19-P caused by ATRA was analyzed.
MM-1-19-P cells were plated in a […] Petri dish, followed by co-transfection of the cells with 0.4 μg of pGFP vector and 2 μg of pcDNA3 (vacant vector) or pcDMA3-HDART (HDART expression vector). 24 hours after the transfection, the medium was changed with an ATRA-containing (2 μM) or ATRA-free fresh one. […] All experiments were repeated four times, and the number of cells assessed as positive for GFP was counted. It will be noted that in FIG. 12, the standard microphotographs of green fluorescence of GFP are shown in panels of FIGS. 12A, 12B, 12C and 12D, and the phase differential microphotographs are shown in panels of FIGS. 12E and 12F, respectively. In the figure, 12A indicates ATRA non-treated, vacant vector-introduced cells, 12B indicates ATRA treated, vacant vector-introduced cells, 12C indicates ATRA-non-treated, HDART expression vector-introduced cells, 12D indicates ATRA-treated, HDART expression vector-introduced cells, 12E indicates cells under the same conditions as in 12C above, and 12F indicates cells under the same conditions as in 12D above. In addition, the black arrow in the panel of FIG. 12F indicates undifferentiated GFP positive cells, and white arrow indicates differentiated cells.

Skip = target: T1, Skip (Homo sapiens, UniProt Q13573); experiment: Yeast two-hybrid analysis (β-galactosidase) of HDART-Skip interaction; type: binding; parameters: expressed in transfected cells; host or cells: Saccharomyces cerevisiae Y190; conditions: Gal4DBD-HDART and deletion mutants with Gal4AD-Skip; β-galactosidase activity
T1 sequence (Q13573 1-536): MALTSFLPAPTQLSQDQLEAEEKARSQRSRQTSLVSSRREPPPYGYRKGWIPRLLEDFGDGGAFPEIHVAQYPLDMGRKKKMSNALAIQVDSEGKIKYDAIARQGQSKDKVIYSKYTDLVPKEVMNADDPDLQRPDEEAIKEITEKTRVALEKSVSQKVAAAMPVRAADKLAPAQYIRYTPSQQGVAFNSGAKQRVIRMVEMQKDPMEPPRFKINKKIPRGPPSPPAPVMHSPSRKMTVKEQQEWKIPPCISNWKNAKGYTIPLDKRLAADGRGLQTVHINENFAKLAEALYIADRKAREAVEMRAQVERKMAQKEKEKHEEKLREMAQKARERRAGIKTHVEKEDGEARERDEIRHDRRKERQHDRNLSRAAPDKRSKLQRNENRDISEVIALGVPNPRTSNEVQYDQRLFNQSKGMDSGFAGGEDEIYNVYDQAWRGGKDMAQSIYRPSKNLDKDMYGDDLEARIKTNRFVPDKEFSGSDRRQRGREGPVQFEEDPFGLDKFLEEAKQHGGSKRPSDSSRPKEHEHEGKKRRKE
Text: In order to isolate a protein that binds to this HDART, a yeast two-hybrid system was used. More particularly, a yeast MATCHMAKER two-hybrid analysis kit (Clontech) was used for the isolation. The ORF full length of HDART was inserted so that it and the Gal4 DNA binding domain reading frame were aligned in the same frame with each other within pAS-1 vector (Clontech). This bait plasmid was transformed into Saccharomyces cerevisiae Y190 along with pACT2 prey plasmid whose HeLa cDNA (Clontech) had been sub-cloned. The screening for clones into which both plasmids were introduced was carried out according to the kit protocol. […]
For mapping of regions on the Skip taking part in the interaction with HDART, a series of deletion mutations where various regions on Skip (N-terminus region (codon 1-220), nuclear hormone binding region (NHR binding, codon 221-388), and tran-activation region (TA, codon 438-536) were deleted, and the interaction between HDART and mutated Skip was analyzed according to the yeast two-hybrid analysis using Gal4DBD-HDART as set forth in Example 2. The results of the analysis are shown in FIG. 5A. The sign “+” indicated at the right of FIG. 5A indicates the observation of the interaction by the filter lift analysis of β-galactosidase activity, and the number of “+” indicates the relative intensity of the interaction. […]

HDAC3 = HDAC3 (Homo sapiens, UniProt O15379); experiment: Immunoprecipitation of GFP-HDART with Flag-HDAC in 293 cells; type: binding; parameters: expressed in transfected cells; host or cells: 293 cells; conditions: co-transfected 293 cells; anti-FLAG immunoprecipitation
Method: Flag-HDACs expression vectors capable of expressing different types of HDAC (1, 3, 4 or 6) and a GFP-HDART expression vector were, respectively, co-transfected with 293 cells in the same manner as in Example 2, and cell extracts were prepared 24 hours after the transfection. The respective cell extracts were incubated with an anti-Flag antibody, followed by immunoprecipitation. The resulting immunoprecipitate was isolated with SDS-PAGE and an isolated pattern was transferred to a membrane, followed by immunoblotting with use of an anti-Flag antibody or […]. For reference, in order to confirm the expression of GFP-HDART protein in the respective cells, individual samples prior to the immunoprecipitation were similarly developed with SDS-PAGE to conduct immunoblotting with use of an anti-GFP antibody. […] The kinds of HDAC's from the left side of the figure are as follows: lane 1, HDAC1; lane 3, HDAC3; lane 4, HDAC4; and lane 5, HDAC6. It will be noted that lane 2 is for the sample in which GFP-HDART alone was expressed.

Chain of HDAC3 (O15379 whole entry, species assumed): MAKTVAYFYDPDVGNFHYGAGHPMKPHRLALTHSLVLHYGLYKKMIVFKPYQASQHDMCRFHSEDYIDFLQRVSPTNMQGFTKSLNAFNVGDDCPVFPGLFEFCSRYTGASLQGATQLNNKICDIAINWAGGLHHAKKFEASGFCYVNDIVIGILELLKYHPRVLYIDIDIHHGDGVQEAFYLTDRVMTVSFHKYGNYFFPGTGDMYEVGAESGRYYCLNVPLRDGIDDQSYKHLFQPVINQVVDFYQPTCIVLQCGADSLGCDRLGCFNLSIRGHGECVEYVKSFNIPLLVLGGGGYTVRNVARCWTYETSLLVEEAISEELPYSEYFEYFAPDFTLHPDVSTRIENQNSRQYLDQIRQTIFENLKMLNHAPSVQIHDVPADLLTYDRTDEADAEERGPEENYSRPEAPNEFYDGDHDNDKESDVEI

interaction with Skip (Skip): able to directly interact with Skip | interaction with HDAC3 (HDAC3): exhibits interaction
B1: HDART: HDAC associated repressor TPR protein, 855 amino acids, SEQ ID NO: 2; transcription repressing factor, used as fusions or expressed from vector (protein, listed as Homo sapiens)
chain: MVVMARLSRPERPDLVFEEEDLPYEEEIMRNQFSVKCWLRYIEFKQGAPKPRLNQLYERALKLLPCSYKLWYRYLKARRAQVKHRCVTDPAYEDVNNCHERAFVFMHKMPRLWLDYCQFLMDQGRVTHTRRTFDRALRALPITQHSRIWPLYLRFLRSHPLPETAVRGYRRFLKLSPESAEEYIEYLKSSDRLDEAAQRLATVVNDERFVSKAGKSNYQLWHELCDLISQNPDKVQSLNVDAIIRGGLTRFTDQLGKLWCSLADYYIRSGHFEKARDVYEEAIRTVMTVRDFTQVFDSYAQFEESMIAAKMETASELGREEEDDVDLELRLARFEQLISRRPLLLNSVLLRQNPHHVHEWHKRVALHQGRPREIINTYTEAVQTVDPFKATGKPHTLWVAFAKFYEDNGQLDDARVILEKATKVNFKQVDDLASVWCQCGELELRHENYDEALRLLRKATALPARRAEYFDGSEPVQNRVYKSLKVWSMLADLEESLGTFQSTKAVYDRILDLRIATPQIVINYAMFLEEHKYFEESFKAYERGISLFKWPNVSDIWSTYLTKFIARYGGRKLERARDLFEQALDGCPPKYAKTLYLLYAQLEEEWGLARHAMAVYERATRAVEPAQQYDMFNIYIKRAAEIYGVTHTRGIYQKAIEVLSDEHAREMCLRFADMECKLGEIDRARAIYSFCSQICDPRTTGAFWQTWKDFEVRHGNEDTIKEMLRIRRSVQATYNTQVNFMASQMLKVSGSATGTVSDLAPGQSGMDDMKLLEQRAEQLAAEAERDQPLRAQSKILFVRSDASREELAELAQQVNPEEIQLGEDEDEDEMDLEPNEVRLEQQSVPAAVFGSLKED
change in phenotype on ATRA treatment (MM-1-19-P cells; HDART expression vector-introduced GFP positive cells, ATRA 2 μM, 48 hours): little change in the phenotype | numbers of GFP positive cells, ATRA treated versus non-treated group (MM-1-19-P cells; HDART expression vector-introduced cells): same
